The source of these data is US20220169679A1 (THAI UNION GROUP PUBLIC, published 2022).

Several values for one entry are separate records, joined by “and”; a condition that tells them apart may be missing. Equal entries are not always repeated.

The first experiment deals with angiotensin I-converting enzyme (ACE). Kind of experiment: cell-based or functional assay.
In the case of VIYSR [VIYSR (SEQ ID NO: 6)], the “ACE inhibitory activity (%) at 1 µg/ml” value was 12.1% and the “ACE inhibitory activity (%) at 1 mg/ml” value was found to be 97.8%.
Turning to VIY, the “ACE inhibitory activity (%) at 1 mg/ml” value turned out to be 18.5%.
Regarding SRINCR [SRINCR (SEQ ID NO: 8)], the “ACE inhibitory activity (%) at 1 µg/ml” value is 27.5% and the “ACE inhibitory activity (%) at 1 mg/ml” value worked out at 98.8%.
For INCR [INCR (SEQ ID NO: 7)] the same measures were 29.1% and 101%.

The target is the same in another experiment. Kind of experiment: cell-based or functional assay. The source holds these as a separate data set.
For the molecule LEQVSAGTT [LEQVSAGTT (SEQ ID NO: 25)], the “ACE inhibition (%) at 1 mg/ml” value is 1.9%.
Still for that read-out and setting: to VQSVPAT [VQSVPAT (SEQ ID NO: 26)] belongs 36.9%; to KKLEKKTT [KKLEKKTT (SEQ ID NO: 30)], 21.5%; to LLHAKPLN [LLHAKPLN (SEQ ID NO: 28)], 79%.
The same measure, in the same setting: to LPPGKIV [LPPGKIV (SEQ ID NO: 18)] belongs 71.7%.
Same read-out and setting: to HFAASGK [HFAASGK (SEQ ID NO: 24)] belongs 27%; to APPHIF [APPHIF (SEQ ID NO: 23)], 82%.
For FDQFLPIH [FDQFLPIH (SEQ ID NO: 20)], the “ACE inhibition (%) at 1 mg/ml” value was 88.4%.
Consider IFERL [IFERL (SEQ ID NO: 19)], for which the “ACE inhibition (%) at 1 mg/ml” value is 45.3%.
Same read-out and setting: to MTGLPGPTGP [MTGLPGPTGP (SEQ ID NO: 33)] belongs 49%.
On the same count and under the same terms, to VSVVQYSR [VSVVQYSR (SEQ ID NO: 4)] belongs 94.2%; to LLDHRANL [LLDHRANL (SEQ ID NO: 22)], 29.2%.
Same read-out and setting: to SFLMRK [SFLMRK (SEQ ID NO: 15)] belongs 77.7%; to NGPSGQTG [NGPSGQTG (SEQ ID NO: 21)], 25.9%.
VEWKERATE [VEWKERATE (SEQ ID NO: 27)]: the “ACE inhibition (%) at 1 mg/ml” value was found to be 15.5%.
With GPLYHS [GPLYHS (SEQ ID NO: 13)], the “ACE inhibition (%) at 1 mg/ml” value came out at 85.8%.
Same read-out and setting: to QGPPGNPG [QGPPGNPG (SEQ ID NO: 32)] belongs 2.91%; to GVPGIHGS [… (SEQ ID NO: 31)], 70.6%; to VIYSRINCR [VIYSRINCR (SEQ ID NO: 5)], 97%.
On the same count and under the same terms, to IKVGGERF [IKVGGERF (SEQ ID NO: 29)] belongs 24.3%.
Still for that read-out and setting: to WTIHTP [WTIHTP (SEQ ID NO: 17)] belongs 68%; to NLLPHR [NLLPHR (SEQ ID NO: 3)], 94.9%; to LIHAIL [LIHAIL (SEQ ID NO: 14)], 33.4%.
Turning to VLMSQVFKQT [VLMSQVFKQT (SEQ ID NO: 16)], the “ACE inhibition (%) at 1 mg/ml” value was found to be 55.1%.

The target is the same in another experiment. Kind of experiment: cell-based or functional assay. The source holds these as a separate data set.
VSVVQYSR [VSVVQYSR (SEQ ID NO: 4)]: the “IC50 of ACE inhibitory activity” value is 0.89 µg/ml and 0.95 µM.
Same read-out and setting: to VIYSRINCR [VIYSRINCR (SEQ ID NO: 5)] belongs 0.27 µg/ml and 0.24 µM; to NLLPHR [NLLPHR (SEQ ID NO: 3)], 0.93 µg/ml and 1.24 µM.
